Earlier results on 2 substances are cited in paper doi:10.1101/2025.05.26.656075.

Broadly, the KD is the free concentration of one partner at which half of the binding sites on the other are occupied at equilibrium, for simple one-to-one binding.

This data set has as its target neonatal Fc receptor (FcRn), biotinylated (UniProt P55899+P61769). Description: not stated. The conditions noted are these: cited from earlier work.

For the substance “MFc4 (IgG4 monomeric Fc of Shan et al.) L351F;S354E;T366R;P395K;F405R;Y407E;L428M;L432C;H433S;N434Y;Y436L;T437C;delQ438 (as printed)”, under “pH 6.0”, the KD is listed as 5 nM.
Consider “native dimeric human IgG1 / IgG1 Fc (literature values)”, for which the KD is, setting by setting: (pH 6.0) 2,140 nM; (pH low pH (number not given)) 1,377 nM; (pH neutral pH (number not given)) “∼88,000 nM”.
